# According to US20070149456A1, “Epithelial sodium channel inhibiting agents and uses therefor” (University of Pittsburgh, priority 2005, published 2007):
# Biological target: T1, mouse ENaC (Mus musculus, UniProt Q61180+Q9WU38+Q9WU39, DEL206-231)
# T1 construct: expressed in transfected cells; host or cells: Xenopus laevis oocytes (cRNA injection)
# T1 sequence (Q61180 with tags, fused parts or gaps DEL206-231): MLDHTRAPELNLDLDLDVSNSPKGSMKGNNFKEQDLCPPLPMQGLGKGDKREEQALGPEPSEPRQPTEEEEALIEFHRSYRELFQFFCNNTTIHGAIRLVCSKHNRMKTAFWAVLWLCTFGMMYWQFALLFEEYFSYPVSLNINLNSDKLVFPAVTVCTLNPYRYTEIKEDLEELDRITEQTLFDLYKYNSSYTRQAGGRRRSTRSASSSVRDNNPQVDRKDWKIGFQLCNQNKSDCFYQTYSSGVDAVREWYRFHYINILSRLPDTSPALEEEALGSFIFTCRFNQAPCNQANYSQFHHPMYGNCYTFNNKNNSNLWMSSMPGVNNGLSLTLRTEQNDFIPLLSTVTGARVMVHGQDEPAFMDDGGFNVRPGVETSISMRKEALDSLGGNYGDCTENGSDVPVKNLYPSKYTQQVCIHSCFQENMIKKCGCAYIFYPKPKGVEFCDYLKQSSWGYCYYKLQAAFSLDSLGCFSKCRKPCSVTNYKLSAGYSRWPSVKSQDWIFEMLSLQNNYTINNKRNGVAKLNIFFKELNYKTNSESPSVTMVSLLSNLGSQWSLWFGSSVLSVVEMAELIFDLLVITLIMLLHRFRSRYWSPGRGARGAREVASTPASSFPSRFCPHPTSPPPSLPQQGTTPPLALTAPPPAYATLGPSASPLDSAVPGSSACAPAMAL
# T1 sequence (Q9WU38 1-638): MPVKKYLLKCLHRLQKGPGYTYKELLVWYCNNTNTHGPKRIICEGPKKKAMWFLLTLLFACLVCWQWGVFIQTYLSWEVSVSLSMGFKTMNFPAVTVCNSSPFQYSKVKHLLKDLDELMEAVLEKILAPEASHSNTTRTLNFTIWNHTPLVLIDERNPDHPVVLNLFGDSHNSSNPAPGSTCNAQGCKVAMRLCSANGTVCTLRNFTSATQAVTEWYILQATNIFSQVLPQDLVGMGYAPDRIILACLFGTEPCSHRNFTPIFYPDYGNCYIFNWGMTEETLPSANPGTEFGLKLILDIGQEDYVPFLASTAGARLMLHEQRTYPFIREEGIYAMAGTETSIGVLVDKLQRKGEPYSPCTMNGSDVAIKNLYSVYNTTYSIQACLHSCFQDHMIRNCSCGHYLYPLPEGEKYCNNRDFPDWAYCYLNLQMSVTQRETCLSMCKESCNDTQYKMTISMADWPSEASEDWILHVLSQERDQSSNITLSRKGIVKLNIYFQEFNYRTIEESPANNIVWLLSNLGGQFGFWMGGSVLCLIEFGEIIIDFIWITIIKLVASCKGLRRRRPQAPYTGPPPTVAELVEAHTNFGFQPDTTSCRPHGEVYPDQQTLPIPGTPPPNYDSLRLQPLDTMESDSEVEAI
# T1 sequence (Q9WU39 1-655): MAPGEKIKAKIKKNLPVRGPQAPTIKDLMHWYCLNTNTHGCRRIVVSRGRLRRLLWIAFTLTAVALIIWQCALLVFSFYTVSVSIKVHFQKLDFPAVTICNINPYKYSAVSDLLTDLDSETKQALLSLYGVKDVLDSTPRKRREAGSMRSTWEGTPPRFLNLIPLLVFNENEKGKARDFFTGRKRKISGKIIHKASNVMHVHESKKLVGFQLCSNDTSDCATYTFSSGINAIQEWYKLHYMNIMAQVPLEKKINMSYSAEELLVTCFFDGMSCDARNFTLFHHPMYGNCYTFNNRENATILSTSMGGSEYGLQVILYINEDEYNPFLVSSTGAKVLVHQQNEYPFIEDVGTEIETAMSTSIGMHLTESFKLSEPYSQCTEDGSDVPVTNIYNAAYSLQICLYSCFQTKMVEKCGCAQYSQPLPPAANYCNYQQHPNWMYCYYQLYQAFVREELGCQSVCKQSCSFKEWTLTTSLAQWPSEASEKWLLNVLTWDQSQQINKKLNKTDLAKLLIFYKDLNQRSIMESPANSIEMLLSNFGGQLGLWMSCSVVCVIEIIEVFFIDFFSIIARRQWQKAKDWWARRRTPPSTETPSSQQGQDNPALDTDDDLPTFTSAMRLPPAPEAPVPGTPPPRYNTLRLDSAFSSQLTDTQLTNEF
# Experiment: Two-electrode voltage clamp, amiloride-sensitive whole cell Na+ current in Xenopus oocytes expressing wild-type αβγ ENaC
# Format: cell-based
# Settings: peptide 10 μM (FIG. 3B)
# From the text: Oocyte Expression—cRNAs for α, β, γ mouse ENaC (wild-type and mutant) subunits and mouse prostasin were synthesized with T3 or T7 m-Message mMachineTM (Ambion, Austin, Tex.). Subunits carrying furin cleavage consensus site mutations and the corresponding wild-type subunits have amino-terminal HA and carboxyl-terminal V5 tags (Hughey, R. P., Bruns, J. B., Kinlough, C. L., Harkleroad, K. L., Tong, Q., Carattino, M. D., Johnson, J. P., Stockand, J. D., and Kleyman, T. R. (2004) J. Biol. Chem. 279, 18111-18114 18). Stage V-VI Xenopus laevis oocytes were pretreated with 1.5 mg/ml of type IV collagenase and injected with 0.5-2 ng of cRNA/subunit. Injected oocytes were maintained as previously reported (Carattino, M. D., Hill, W. G., and Kleyman, T. R. (2003), Arachidonic Acid Regulates Surface Expression of Epithelial Sodium Channels, J Biol. Chem. 278, 36202-36213 29).
# Two-electrode Voltage Clamp—Two-electrode voltage clamp (TEV) was performed as previously described (Carattino, M. D., Hill, W. G., and Kleyman, T. R. (2003) J Biol. Chem. 278, 36202-36213 29). The extracellular solution (TEV solution) was (in mM): 110 NaCl, 2 KCl, 1.54 CaCl2, 10 HEPES, pH 7.4, or otherwise as indicated. […] Experiments with oocytes co-expressing ENaC and prostasin and the corresponding controls were performed in the presence of aprotinin (1 μM) to impede any potential degradation of α-26 by prostasin.
# Data and Statistical Analyses—and mean time of inhibition are expressed as the mean with a 95% confidence interval (CI); otherwise, data were expressed as the mean ±S.E. (n), where “n” equals the number of independent experiments analyzed. IC50 was estimated from normalized currents plotted as a function of the peptide concentration fitted, as shown in Equation 1 y=t/(1+10^(logX−log/C50)) (Eq. 1) where y is the response variable, X is the concentration of peptide, and IC50 is the concentration of peptide that provokes a response half way between the baseline (t) and maximum response. […] Results
row,Sequence,block of ENaC currents by related peptides
1,DLRGALAHALQRLRTAAAANAARSAR (Ac-DLRGALAHALQRLRTAAAANAARSAR-NH2) [P/A],significant reduction in the block
2,DLEGALPHPLQELETPPPPNPAESAE (Ac-DLEGALPHPLQELETPPPPNPAESAE-NH2) [R/E],significant reduction in the block
